Assay results: US20160032297, “METHODS FOR THE IDENTIFICATION OF VARIANT RECOGNITION SITES FOR RARE-CUTTING ENGINEERED DOUBLE-STRAND-BREAK-INDUCING AGENTS AND COMPOSITIONS AND USES THEREOF” (E.I. DU PONT DE NEMOURS AND COMPANY, published 2016)

Molecular target: T1, MHP14+ meganuclease (single-chain engineered I-CreI) (artificial)
T1 chain: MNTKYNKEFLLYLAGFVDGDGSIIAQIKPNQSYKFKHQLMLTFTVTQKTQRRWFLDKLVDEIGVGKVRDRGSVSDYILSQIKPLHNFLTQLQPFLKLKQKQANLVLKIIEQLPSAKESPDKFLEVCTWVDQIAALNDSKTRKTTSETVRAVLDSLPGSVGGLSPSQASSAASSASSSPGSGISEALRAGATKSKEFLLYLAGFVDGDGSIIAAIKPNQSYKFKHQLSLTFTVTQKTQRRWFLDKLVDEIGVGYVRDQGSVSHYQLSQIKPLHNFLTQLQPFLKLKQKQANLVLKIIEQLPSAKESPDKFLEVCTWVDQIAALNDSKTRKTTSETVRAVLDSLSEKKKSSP
Assay: cleavage_in_vitro; depends on reaction temperature
Details: tags: expressed from pQE80 in E. coli, Ni-NTA purified
Experimental: To generate material for the capture of genomic variant recognition sites, in vitro assays were carried out with 114 nM of purified meganuclease protein isolated as described in Example 2 and 6.07 μg of purified maize genomic DNA at 32° C. for 80 minutes in a final volume of 80 μl in the presence of digestion buffer (50 mM Tris-HCl (pH 7.9), 100 mM NaCl, 10 mM MgCl₂, 1 mM DTT, […]). After 80 minutes, the entire reaction was stopped with an equal volume of stop buffer (100 mM Tris-HCl (pH 8.0), 600 mM NaCl, 2% SDS, 100 mM EDTA, 1 mg of proteinase K per ml) and incubated at 50° C. for 30-45 minutes. Stopped reactions were purified by phenol/chloroform extraction and ethanol precipitated in the presence of 0.2 M NaCl. Precipitated genomic DNA was washed twice with 70% ethanol, dried, and resuspended in 34 μl of water. […]

B1: MHP14+ maize genomic variant site (dsDNA)
DNA 1: CAAGAAGAAGCACGTCAGCTTA
DNA 2: TAAGCTGACGTGCTTCTTCTTG
In the case of B1, the relative cleavage activity is reported as roughly 3 fold vs intended site.
